Test results published in patent publication US20240263180, “SMALL COMPLEMENTARY NUCLEIC ACIDS, COMPOSITIONS CONTAINING THE SAME, AND METHODS FOR USE AS ANTIVIRALS” (HOWARD UNIVERSITY, published 2024).

Tests used:
[1] = biological target: T1, U2AF65 (UniProt P26368 P26368:2-475); test: EMSA; native PAGE; conditions: label: radiolabel
[2] = biological target: T1, U2AF65; test: EMSA; conditions: label: radiolabel

T1 sequence (P26368 2-475, one chain of several): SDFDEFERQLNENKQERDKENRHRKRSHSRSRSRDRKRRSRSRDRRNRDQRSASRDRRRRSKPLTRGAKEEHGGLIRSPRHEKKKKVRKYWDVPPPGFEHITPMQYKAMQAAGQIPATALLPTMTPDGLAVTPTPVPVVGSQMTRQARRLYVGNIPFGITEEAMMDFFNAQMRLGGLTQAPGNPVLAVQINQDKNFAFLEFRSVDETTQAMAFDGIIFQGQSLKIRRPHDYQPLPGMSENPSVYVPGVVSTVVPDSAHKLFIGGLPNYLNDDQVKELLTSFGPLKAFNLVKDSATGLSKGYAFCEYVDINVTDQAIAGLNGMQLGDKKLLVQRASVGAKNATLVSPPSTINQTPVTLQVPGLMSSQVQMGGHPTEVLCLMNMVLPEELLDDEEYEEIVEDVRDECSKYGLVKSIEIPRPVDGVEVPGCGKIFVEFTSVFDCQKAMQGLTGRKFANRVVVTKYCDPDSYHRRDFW

Row | Binder | binding result [1] | binding result [2]
1 | CACGCCUGUGAAACCGUACUAAGUCUCCCGUGUCUUCUUAUCACCAUCAG (ssRNA) [wt PyA+PyB RNA probe (HCMV MIE intron 4)] | binds | –
2 | CACGCCUGUGAAACCGUACUAAGUCAGCCGUGUCAAGUUAUCACCAUCAG (ssRNA) [dPyAB probe] | – | no binding
3 | CACGCCUGUGAAACCGUACUAAGUCUCCCGUGUCAAGUUAUCACCAUCAG (ssRNA) [dPyB probe] | – | no binding
